How the values were obtained:
[1] = target: Flag-tagged human melanocortin-3 receptor (MC3R) on HEK293T cells (human) (UniProt P41968)
[2] = target: Flag-tagged human melanocortin-5 receptor (MC5R) on HEK293T cells (human) (UniProt P33032)
UniProt P33032, sequence (P33032 whole entry): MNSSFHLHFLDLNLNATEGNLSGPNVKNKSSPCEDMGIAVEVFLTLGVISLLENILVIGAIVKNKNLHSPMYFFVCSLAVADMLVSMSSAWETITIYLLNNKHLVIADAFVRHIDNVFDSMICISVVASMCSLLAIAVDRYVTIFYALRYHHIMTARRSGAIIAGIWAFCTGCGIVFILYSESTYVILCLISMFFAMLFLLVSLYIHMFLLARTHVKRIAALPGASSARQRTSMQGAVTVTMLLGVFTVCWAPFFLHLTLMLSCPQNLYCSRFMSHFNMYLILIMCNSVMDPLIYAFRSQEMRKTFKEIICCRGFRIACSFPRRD

UniProt P41968, sequence (P41968 whole entry): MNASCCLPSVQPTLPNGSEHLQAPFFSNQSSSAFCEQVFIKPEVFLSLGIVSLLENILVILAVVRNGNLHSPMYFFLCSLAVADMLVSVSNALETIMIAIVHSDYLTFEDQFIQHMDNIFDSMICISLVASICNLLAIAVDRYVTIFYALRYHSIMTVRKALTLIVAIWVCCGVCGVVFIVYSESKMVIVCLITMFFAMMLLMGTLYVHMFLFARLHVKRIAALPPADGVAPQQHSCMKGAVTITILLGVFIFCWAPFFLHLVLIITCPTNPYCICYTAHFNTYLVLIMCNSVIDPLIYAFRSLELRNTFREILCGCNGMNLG

- cAMP signaling (GloSensor), HEK293 cells with human MC3R, EC50 [1]: 2.1 nM
- cAMP signaling (GloSensor), HEK293 cells with human MC5R, EC50 [2]: 451 nM
Substance: setmelanotide (peptide)

Source: paper PMC11445563
